Target: GST–Rab7 (wild type, loaded with GTP or GTPγS) (UniProt P51149 1-207)
Experiment: pull-down

GST–Rab7 (wild type, loaded with GTP or GTPγS), sequence (P51149 whole entry): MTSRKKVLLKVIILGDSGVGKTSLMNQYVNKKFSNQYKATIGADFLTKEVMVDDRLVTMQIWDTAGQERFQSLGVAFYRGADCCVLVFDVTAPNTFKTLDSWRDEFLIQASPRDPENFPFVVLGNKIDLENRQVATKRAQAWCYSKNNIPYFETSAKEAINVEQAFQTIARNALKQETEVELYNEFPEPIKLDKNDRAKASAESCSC

B1: in vitro–translated 35S-labeled ORP1L (full length) (natural protein, human, UniProt Q9BXW6-1 1-950, looked up)
chain: MNTEAEQQLLHHARNGNAEEVRQLLETMARNEVIADINCKGRSKSNLGWTPLHLACYFGHRQVVQDLLKAGAEVNVLNDMGDTPLHRAAFTGRKELVMLLLEYNADTTIVNGSGQTAKEVTHAEEIRSMLEAVERTQQRKLEELLLAAAREGKTTELTALLNRPNPPDVNCSDQLGNTPLHCAAYRAHKQCALKLLRSGADPNLKNKNDQKPLDLAQGAEMKHILVGNKVIYKALKRYEGPLWKSSRFFGWRLFWVVLEHGVLSWYRKQPDAVHNIYRQGCKHLTQAVCTVKSTDSCLFFIKCFDDTIHGFRVPKNSLQQSREDWLEAIEEHSAYSTHYCSQDQLTDEEEEDTVSAADLKKSLEKAQSCQQRLDREISNFLKMIKECDMAKEMLPSFLQKVEVVSEASRETCVALTDCLNLFTKQEGVRNFKLEQEQEKNKILSEALETLATEHHELEQSLVKGSPPASILSEDEFYDALSDSESERSLSRLEAVTARSFEEEGEHLGSRKHRMSEEKDCGGGDALSNGIKKHRTSLPSPMFSRNDFSIWSILRKCIGMELSKITMPVIFNEPLSFLQRLTEYMEHTYLIHKASSLSDPVERMQCVAAFAVSAVASQWERTGKPFNPLLGETYELVRDDLGFRLISEQVSHHPPISAFHAEGLNNDFIFHGSIYPKLKFWGKSVEAEPKGTITLELLEHNEAYTWTNPTCCVHNIIVGKLWIEQYGNVEIINHKTGDKCVLNFKPCGLFGKELHKVEGYIQDKSKKKLCALYGKWTECLYSVDPATFDAYKKNDKKNTEEKKNSKQMSTSEELDEMPVPDSESVFIIPGSVLLWRIAPRPPNSAQMYNFTSFAMVLNEVDKDMESVIPKTDCRLRPDIRAMENGEIDQASEEKKRLEEKQRAARKNRSKSEEDWKTRWFHQGPNPYNGAQDWIYSGSYWDRNYFNLPDIY
modifications: 35S-labeled
fold increase of binding in the presence of m9: ~4 fold

From paper PMC2063981 (The Journal of Cell Biology, 2007)
